According to patent US20220298217A1 (FLAGSHIP PIONEERING INNOVATIONS VI, published 2022):

How the values were obtained:
Assay in all cases: cell-based or functional assay
[1] = target: Flag-PTHR1-YFP (parathyroid hormone receptor 1) expressed in transfected HEK293T cells (human) (UniProt Q03431)
[2] = target: T1, PTHR1 on CHO-K1/Ga15/PTHR1 cells (UniProt Q03431 27-593, limits assumed)
T1 sequence (looked up): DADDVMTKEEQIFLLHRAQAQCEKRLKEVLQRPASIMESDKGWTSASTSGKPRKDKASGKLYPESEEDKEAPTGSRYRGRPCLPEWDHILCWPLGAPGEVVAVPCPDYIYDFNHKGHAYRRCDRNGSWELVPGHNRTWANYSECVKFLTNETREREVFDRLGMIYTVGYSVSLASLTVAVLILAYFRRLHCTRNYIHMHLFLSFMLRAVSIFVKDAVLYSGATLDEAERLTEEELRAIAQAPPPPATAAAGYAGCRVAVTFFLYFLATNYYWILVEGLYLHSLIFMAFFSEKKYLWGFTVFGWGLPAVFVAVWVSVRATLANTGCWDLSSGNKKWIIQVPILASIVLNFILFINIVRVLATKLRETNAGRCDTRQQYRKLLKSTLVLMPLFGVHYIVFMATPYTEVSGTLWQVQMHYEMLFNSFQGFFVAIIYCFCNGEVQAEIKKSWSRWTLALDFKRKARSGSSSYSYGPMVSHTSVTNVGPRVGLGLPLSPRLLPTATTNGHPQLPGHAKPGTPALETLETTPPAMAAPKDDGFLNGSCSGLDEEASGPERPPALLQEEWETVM

Flag-PTHR1-YFP = target: T2, Flag-PTHR1-YFP (UniProt Q03431 27-593)
T2 sequence (looked up): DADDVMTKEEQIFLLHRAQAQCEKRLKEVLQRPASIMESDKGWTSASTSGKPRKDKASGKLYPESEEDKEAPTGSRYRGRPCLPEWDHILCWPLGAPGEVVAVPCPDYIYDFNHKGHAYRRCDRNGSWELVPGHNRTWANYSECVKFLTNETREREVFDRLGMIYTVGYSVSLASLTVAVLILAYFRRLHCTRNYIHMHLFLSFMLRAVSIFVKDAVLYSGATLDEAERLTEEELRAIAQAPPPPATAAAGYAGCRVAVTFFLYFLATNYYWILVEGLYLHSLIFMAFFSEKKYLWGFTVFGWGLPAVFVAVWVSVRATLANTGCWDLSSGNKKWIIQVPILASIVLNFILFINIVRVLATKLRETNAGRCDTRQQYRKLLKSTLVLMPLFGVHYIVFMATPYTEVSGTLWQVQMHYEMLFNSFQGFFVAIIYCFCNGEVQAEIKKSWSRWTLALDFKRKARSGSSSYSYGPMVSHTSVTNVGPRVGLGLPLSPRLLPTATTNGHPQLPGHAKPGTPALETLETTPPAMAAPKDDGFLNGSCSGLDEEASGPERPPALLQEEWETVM

Molecule	arrestin 1, plate 25: -log10EC50 [1]	arrestin 1, plate 25: Emax [1]	arrestin 2, plate 26: -log10EC50 [1]	arrestin 2, plate 26: Emax [1]	cAMP accumulation (HTRF): -log10EC50 [2]	cAMP accumulation (HTRF): Emax [2] [%]	arrestin 2 recruitment (BRET): -log10EC50 (Flag-PTHR1-YFP)	arrestin 2 recruitment (BRET): Emax (Flag-PTHR1-YFP)
PTH 7-36 antago (peptide)	-6.98 -log10EC50	7.68	-7.33 -log10EC50	8.04	–	–	–	–
AVAEIQLMHQRAKWEIQEIGIKITLELLKEYI [R2-37]	–	–	–	–	-9.09 -log10EC50 (as headed)	96.4	-5.86 -log10EC50 (as headed)	17
AVAEIQLMHQRAKWGLEIELLKLLLSLLKEYI [R2-45]	–	–	–	–	-11.1 -log10EC50 (as headed)	729	-5.76 -log10EC50 (as headed)	16.1
VDFEIQLMQQRAQWIADYRIREFLDKLIAEIF [R1-94]	–	–	–	–	-10.1 -log10EC50 (as headed)	90.8	–	–
AVAEIQLMHQRAKWRAEYELREMLLRLLEEIF [R1-96]	–	–	–	–	-8.01 -log10EC50 (as headed)	99.7	–	–
AVAEIQLMHQRAKWDVLIELAKLLAELLRRYH [R2-47]	–	–	–	–	-9.23 -log10EC50 (as headed)	102	-5.77 -log10EC50 (as headed)	15.2
GIAVITLMLLRAYLELLEELVKILHELLRRYH [R2-52]	–	–	–	–	-5.59 -log10EC50 (as headed)	97.4	–	–
GVAMLQIMHDLAKIKQELELKDSMKKILEDVL [R2-50]	–	–	–	–	-6.24 -log10EC50 (as headed)	99.8	-10.5 -log10EC50 (as headed)	6.45
AVAEIQLMHQRAKWSILEELLKILTALLDEYI [R2-46]	–	–	–	–	–	–	-6.73 -log10EC50 (as headed)	8.34
AVAEIQLMHQRAKWELQEIGIKITLDLLEAYL [R2-39]	–	–	–	–	–	–	-7.7 -log10EC50 (as headed)	6.88
AVAEIQLMHQRAKWELEYELFEMFLKLLEEIF [I1 (R1-100)]	–	–	–	–	-7.28 -log10EC50 (as headed)	99.9	–	–
AVAEIQLMHQRAKWDLLIELVKLLHELLKEYI [R2-40]	–	–	–	–	-11.2 -log10EC50 (as headed)	95.1	-5.85 -log10EC50 (as headed)	13.9
AVAEIQLMHQRAKWRLEIELLKKLKEILKDVY [R2-34]	–	–	–	–	-6.98 -log10EC50 (as headed)	96.1	-8.41 -log10EC50 (as headed)	7.61
AVAEIQLMHQRAKWKLELELKAFLDQILKDVL [R2-36]	–	–	–	–	-8.32 -log10EC50 (as headed)	99	-8.7 -log10EC50 (as headed)	7.53
AVAEIQLMHQRAKWELQEIGIAITLRLLARYI [R2-43]	–	–	–	–	-10.5 -log10EC50 (as headed)	309	-8.03 -log10EC50 (as headed)	7.45
AVAEIQLMHQRAKWSLREELEKLLKELLKEYI [R2-44]	–	–	–	–	-10.4 -log10EC50 (as headed)	106	-8.46 -log10EC50 (as headed)	7.63
AVAEIQLMHQRAKWELEFELFREFLKLLVDFF [I3 (R1-97)]	–	–	–	–	-7.23 -log10EC50 (as headed)	99.3	–	–
AVAEIQLMHQRAKWAIQEIGIKITRELLERYL [R2-42]	–	–	–	–	-6.54 -log10EC50 (as headed)	97.6	-8.37 -log10EC50 (as headed)	7.53
AVAEIQLMHQRAKWKILEELLKILIDLLKQYI [R2-48]	–	–	–	–	-7.19 -log10EC50 (as headed)	98.8	-15.2 -log10EC50 (as headed)	6.42
AVAEIQLMHQRAKWGVELQLKVDLRRILEDVY [R2-35]	–	–	–	–	-8.01 -log10EC50 (as headed)	97	-3.46 -log10EC50 (as headed)	35.8
